Test results reported in patent US20060134122A1, “Peptides of syndecan-1 for inhibition of cancer” (priority 2004, published 2006).

Experiments:
[1] = system: MDA-MB-231 human mammary carcinoma cells; experiment: Cell spreading assay (rhodamine-phalloidin), MDA-MB-231; assay type: cell-based; conditions: 2 h, LM609 30 μg/mL, GST-mS1ED or GST-mS4ED 20 μM; for cell spreading on FN: wells coated with 10 μg/mL FN, mAb 13 25 μg/mL; for cell spreading on VN: wells coated with 10 μg/mL VN, absence of serum
Experimental: FIG. 1 —MDA-MB-231 human mammary carcinoma cell spreading on VN, but not FN, is disrupted by soluble, recombinant Sdc-1ED. Cells were plated on wells coated with 10 μg/mL of VN or FN in plating medium alone or medium containing either 30 μg/mL mAb LM609, 25 μg/mL mAb 13, 20 μM GST-mS1ED or -mS4ED. Cells were incubated at 37° C. for 2 h, fixed and stained with rhodamine-conjugated phalloidin. Bar, 50 μm.
FIGS. 6A-B—Deletion of a region of the Sdc-1ED blocks αvβ3-mediated cell spreading. (FIG. 6A) Graphic representation of S1 expression constructs transfected into MDA-MB-231 cells and their relative expression levels as detected by FACS (mean fluorescent intensity). Note the locations of the mAb 281.2 and B-B4 binding sites; asterisks indicate the HS attachment sites. (FIG. 6B) Cells transfected with empty vector (NEO) or S1 constructs were seeded in plating medium on wells coated with either anti-hS1 mAb B-B4 (NEO+inset, hS1 and insets of mS1) or anti-mS1 mAb 281.2 (all others). Where noted, cells were pretreated in suspension with 1 μg/mL mAb P5D2 for 15 min prior to plating. Cells were incubated at 37° C. for 2 h, fixed and stained with rhodamine-conjugated phalloidin. Bar, 50 μm.
FIGS. 8A-H—Downregulation of Sdc-1 expression by siRNA disrupts cell spreading and migration on VN. (FIG. 8A) SiRNA targeting of hS1 mRNA. FACS analysis for (FIGS. 8B-C) hS1 (mAb B-B4), (FIG. 8D) hS4 (mAb F94-8G3) and (FIG. 8E) mS1 (mAb 281.2) expression against IgG controls (black filled histograms) in NEO and GPI-mS1ED expressing MDA-MB-231 cells 72 h after transfection with either lipid-vehicle alone (Vehicle or (V)) or 200 nM siRNA (RNAi or (R)). (FIG. 8F) NEO^MDA-MB-231 cells and MDA-MB-231 cells expressing GPI-mS1ED, mS1^Δ88-252, mS1^Δ122-252 and mS1^TDM were transfected with lipid-vehicle alone or 200 nM hS1-siRNA and seeded on wells coated with either 10 μg/ml of VN or FN. Cells were incubated at 37° C. for 2 h, fixed and stained with rhodamine-conjugated phalloidin. Bar, 50 μm. (FIG. 8G-H) Lipid-vehicle (gray-filled) or hS1-siRNA (black-filled) transfected cells were also plated on polycarbonate filters coated with either 10 μg/ml of VN (FIG. 8G) or FN (FIG. 8H) in a modified Boyden chamber. After 16 h, cells that migrated through the filter in response to 10% FBS in the lower chamber were quantified by colorimetric staining.
MDA-MB-231 human mammary carcinoma cells, plated in the absence of serum, adhere to and spread (˜15-20 min after plating) on wells coated with either 10 μg/mL VN or FN (FIG. 1). […] LM609 has no effect on spreading in response to FN; instead, the cells rely on […] to respond to FN as spreading is blocked by either 25 μg/mL mAb 13 (FIG. 1; Mould et al., 1996) or mAb 16 (unpublished data; Akiyama et al., 1989). […]

[2] = system: MDA-MB-231 and MB-435 cells; experiment: Migration across coated filters (modified Boyden chamber), MDA-MB-231 and MB-435; assay type: cell-based, human; conditions: S1ED pAb 250 μg/mL or GST-mS1ED 20 μM; 16 h
Experimental: FIGS. 5A-B—Sdc-1ED Inhibitors disrupt αvβ3 integrin-dependent cell migration on VN. MDA-MB-231, MDA-MB-435 and MCF-7 cells in plating medium alone (black-filled) or in plating medium containing either 20 μM GST-mS1ED (open) or 250 μg/mL polyclonal mS1ED antibodies (gray-filled) were seeded on polycarbonate filters coated with either 10 μg/ml of VN (FIG. 5A) or FN (FIG. 5B) in a modified Boyden chamber. After 16 h, cells that migrated through the filter in response to 10% FBS in the lower chamber were quantified by colorimetric staining.
To test the role of the S1ED in αvβ3 integrin dependent signaling in another functional assay, cells were examined for their ability to migrate across VN or FN-coated filters in the presence or absence of S1ED pAb (250 μg/mL) or GST-mS1ED recombinant protein (20 μM). Migration of treated MDA-MB-231 and MB-435 cells across VN is suppressed 2- to 4-fold relative to untreated controls (FIG. 5A). MCF-7 cell migration across VN, which is αvβ1 dependent, is unaffected by either treatment.

B1: GST-mS4ED: recombinant GST fusion of mouse syndecan-4 ectodomain, specificity control (protein)
chain: ESIRETEVIDPQDLLEGRYFSGALPDDEDAGGSDDFELSGSGDLDDTEEPRPFPEVIEPLVPLDNHIPENAQPGIRVPSEPKELEENEVIPKRAPSDVGDDMSNKVSMSSTAQGSNIFERTE
modifications: left off: a dimerising Fc or GST
notes: recombinant GST fusion of mouse syndecan-4 ectodomain, specificity control
**Q.** B1 was tested. Which “cell spreading on FN” value [1] did it give?
**A.** no effect

**Q.** What about the “cell spreading on VN” value [1] of the same molecule?
**A.** no effect

B2: GST-mS1ED: recombinant mouse syndecan-1 ectodomain expressed as a fusion protein with GST (protein)
chain: QIVAVNVPPEDQDGSGDDSDNFSGSGTGALPDTLSRQTPSTWKDVWLLTATPTAPEPTSSNTETAFTSVLPAGEKPEEGEPVLHVEAEPGFTARDKEKEVTTRPRETVQLPITQRASTVRVTTAQAAVTSHPHGGMQPGLHETSAPTAPGQPDHQPPRVEGGGTSVIKEVVEDGTANQLPAGEGSGEQDFTFETSGENTAVAAVEPGLRNQPPVDEGATGASQSLLDRKEVLG
modifications: left off: a dimerising Fc or GST
notes: recombinant mouse syndecan-1 ectodomain expressed as a fusion protein with GST
**Q.** B2 was tested. Which “cell spreading on FN” value [1] did it give?
**A.** no effect

**Q.** What about the “cell spreading on VN” value [1] of the same molecule?
**A.** blocks cell spreading

**Q.** What about the “cell migration across FN” value [2] of the same molecule?
**A.** neither inhibitor has any effect
